This assay addresses Stat1α (human). The assay is described as follows: co-immunoprecipitation with anti-FLAG M2 from COS cells with or without EGF, blot with Stat1 antiserum.

The values that follow come from patent US5716622.

In the case of FLAG-tagged Stat3, the amount of Stat1 coprecipitated, treated cells against untreated cells stood at 5 fold.
